The values that follow come from patent US20250269018A1, “COMBINED CANCER THERAPY WITH AN EPITHELIAL CELL ADHESION MOLECULE (EPCAM) INHIBITOR AND A HEPATOCYTE GROWTH FACTOR RECEPTOR (HGFR) INHIBITOR” (ACADEMIA SINICA, priority 2021, published 2025).

The assay deals with HGFR signaling. The assay can be described thus: Western blotting of phosphorylated HGFR, AKT, ERK, FAK in HCT116 cells. It counts as cell-based, human. As to conditions: for phosphorylation of HGFR, AKT, and ERK: FIG. 7D. As for the experimental part: FIGS. 2A to 2K. EpEX promotes tumor progression via HGFR signaling. (FIG. 2A) WT or EpCAM knockout (KO) HCT116 and HT29 cells treated with HGF (0.5 nM) for 15 min. The phosphorylation of HGFR, AKT, and ERK was examined by Western blotting. (FIG. 2B) WT or KO HCT116 and HT29 cells were treated with HGF (0.5 nM) with 2% FBS for the indicated times. Cell growth was examined by the WST-1 assay. (FIG. 2C) Starved HCT116 cells were treated with HGFR inhibitor SU11274 (SU, 10 μM) for 1 h then treated with 50 nM of EpEX-His for 15 min. The levels of phosphorylated HGFR, EGFR, AKT, and ERK were examined by Western blotting. HCT116 and HT29 cells were treated with 50 nM EpEX and SU (10 μM). (FIG. 2D) Cell growth was examined by WST-1 assay after treatment for indicated time. (FIG. 2E) HCT116 cells were treated with shLuc or HGFR shRNA then treated with 50 nM of EpEX-His for 15 min. The levels of phosphorylated HGFR, EGFR, ERK, and AKT were examined in HGFR knockdown HCT116 cells by Western blotting. (FIG. 2F) The levels of phosphorylated ADAM17 and presenilin 2 were examined by Western blotting. (FIG. 2G) Active β-catenin nuclear translocation was assay by using Western blotting. (H) HCT116 cells were treated with shLuc or HGFR shRNA then treated with 50 nM of EpEX-His for indicated times. Cell growth was examined by the WST-1 assay. (FIG. 2I) HCT116 cells after shLuc and shHGFR treatment were treated with 50 nM of EpEX-His with 2% FBS for 7 days. Colony formation was examined by crystal violet staining.
FIGS. 6A to 6J. EpAb2-6 inhibits EpCAM and HGFR signaling and promotes active β-catenin and Snail protein degradation via activating GSK3β. (FIG. 6A) HCT116 cells were treated with 10 μg/ml control IgG (normal mouse IgG, NMIgG) or mouse EpAb2-6 (EpAb2-6) for 16 h, followed by treatment with EpEX-His (50 nM) for 15 min. Levels of phosphorylated HGFR, AKT, FAK, GSK3β, ERK, ADAM17, and presenilin 2 were examined by Western blotting. (FIG. 6B) HCT116 cells were treated with 10 μg/ml control IgG or mouse EpAb2-6 for 16 h, followed by treatment without or with HGF (0.5 nM) for 15 min. Levels of phosphorylated HGFR, AKT, and ERK were examined by Western blotting. HCT116 cells were treated with mouse EpAb2-6 (10 μg/ml) and HGF (0.5 nM). (FIG. 6C) Cell migration was examined by the wound healing assay at the indicated times. (FIG. 6D) Cell invasion was assessed by a Transwell assay with matrigel after 24 h. (FIG. 6E) HCT116 cells were treated with NMIgG or EpAb2-6 for 6 h and then immunoprecipitated with anti-EpCAM (IP: EpCAM) or anti-HGFR (IP: HGFR) antibodies, followed by Western blotting. (FIG. 6F) EpEX-His (2 μg/ml) co-treated with 1 μg IgG or EpAb2-6 was added to HGFR-Fc-coated (1 μg/ml) ELISA plates and detected by TMB colorimetric peroxidase assay. (FIG. 6G) EMT associated protein levels were detected by Western blotting in HCT116 cells treated with NMIgG or EpAb2-6 for 24 h. (FIG. 6H) Protein expression was analyzed by Western blotting in HCT116 cells after treatment with EpAb2-6 and 2 μM GSK3β inhibitor (BIO) for 24 h. Quantification of the normalized protein expression in the bottom panel. (FIG. 6I) HCT116 cells were treated with 10 μM MG132 and EpAb2-6 for 6 h before cell collection and subsequent Western blotting. (FIG. 6J) Stability of Snail protein in HCT116 cells treated with NMIgG or EpAb2-6. Cells were treated with cyclohexamide (CHX) 100 μg/ml at the indicated intervals and subjected to Western blotting.
FIGS. 7A to 7G. EpAb2-6 binds EpEX and induces apoptosis by F(ab′)2 and inhibits regulated intramembrane proteolysis (RIP) activation and HGFR signaling. (FIG. 7A) Binding affinity of IgG EpAb2-6 (mouse) and F(ab′)2 to EpEX-His (1 μg/ml) coated overnight was checked using ELISA (OD450). (FIG. 7B) HCT116 cells were treated with 100 μg/ml control IgG, Fc, or F(ab′)2 of EpAb2-6 for 24 h. The apoptotic and necrotic cells were quantified by fluorescein annexin V-FITC/PI double labeling. […]

Where [1] appears, read: HCT116, 10 μg/ml 16 h, then EpEX-His 50 nM 15 min.

Take `Cc1[nH]c(C=C2C(=O)Nc3ccc(S(=O)(=O)N(C)c4cccc(Cl)c4)cc32)c(C)c1C(=O)N1CCN(C)CC1` (stereo in doubt) [SU11274, (3Z)-N-(3-Chlorophenyl)-3-({3,5-dimethyl-4-[(4-methylpiperazin-1-yl)carbonyl]-1H-pyrrol-2-yl}methylene)-N-methyl-2-oxo-2,3-dihydro-1H-indole-5-sulfonamide]: for the setting “HCT116 cells, SU 10 μM 1 h, then 50 nM EpEX-His 15 min, FIG. 2C”, the “EpEX-mediated ERK and AKT phosphorylation” value is “attenuate EpEX-mediated ERK and AKT phosphorylation”.
Consider “MT201: human anti-EpCAM antibody, adecatumumab (MT201)”, for which, under setting [1], the “phosphorylation of HGFR, AKT, and ERK” value is given as “did not”.

B1: EpAb2-6: anti-EpCAM neutralizing monoclonal antibody targeting EpEX; VH SEQ ID NO: 15, VL SEQ ID NO: 16 (antibody, listed as Homo sapiens, V domains shown)
VH: VKLQESGPELKKPGETVKISCKASGYTFTDYSMHWVKQAPGKGLKWMGWINTETGEPTYADDFKGRFAFSLETSASTAYLQINNLKNEDTATYFCARTAVYWGQGTTVTVSS
VL: DIQMTQSPSSLSASLGERVSLTCRASQEISVSLSWLQQEPDGTIKRLIYATSTLDSGVPKRFSGSRSGSDYSLTISSLESEDFVDYYCLQYASYPWTFGGGTKLEIKRADAAPTVS
B1: under setting [1], the “phosphorylation of HGFR, AKT, and ERK” value was “inhibited phosphorylation of HGFR, AKT, and ERK”. For the same molecule, the “phosphorylation of HGFR, AKT, ERK, and FAK” value (HCT116, 10 μg/ml 16 h, then EpEX-His 50 nM 15 min, vs control IgG, FIG. 6A) was “decreased phosphorylation of HGFR, AKT, ERK, and FAK”. Moreover, the “phosphorylation levels of HGFR, AKT, and ERK” value (HCT116, 10 μg/ml 16 h, without or with HGF 0.5 nM 15 min, FIG. 6B) is on record as “significantly decreased”. Further, the “levels of phosphorylated HGFR” value (after EpAb2-6 treatment, discussion statement) is “decreased levels of phosphorylated HGFR”.
